Source: article PMC4725365
Values belong to the substance of their own block, whether it stands above or below them.

Key:
[1] = target: A1-MAGE-A3 (HLA-A*0101 with the MAGE-A3 peptide …), biotinylated; assay: SPR (single cycle kinetics); details: 25 °C; approximately 150 RUs of biotinylated pMHC immobilised onto a CM5 amine chip
[2] = target: A1-Titin (HLA-A*0101 with the Titin peptide …), biotinylated; assay: SPR (single cycle kinetics); details: 25 °C; approximately 150 RUs of biotinylated pMHC immobilised onto a CM5 amine chip
[3] = target: A1-Titin (HLA-A*0101 with the Titin peptide ), biotinylated; assay: SPR
[4] = target: A1-MAGE-A3 (HLA-A*0101 with the MAGE-A3 peptide ), biotinylated; assay: SPR

Substance: MAG-IC3 TCR N97D
Kd [2]: 916 nM

Substance: MAG-IC3 TCR N97E
other: t1/2 [1]: 14 min
Kd [2]: 743 nM

Substance: MAG-IC3 TCR R31L
Kd [1]: 13.4 nM
Kd [2]: 93 nM

Substance: MAG-IC3 TCR mutant F51T (β chain)
Kd [3]: 97.6 nM

Substance: MAG-IC3 TCR mutant F51W (β chain)
Kd [4]: 8.4 nM

Substance: MAG-IC3 TCR mutant N97E (β chain)
Kd [4]: 35 nM

Substance: MAG-IC3 TCR mutant R31W (β chain)
Kd [4]: 6.2 nM
Kd [3]: 100 nM

Results, then the substance that gave them:

Kd [1]: 3.2 nM
other: t1/2 [1]: 66 min
Substance: MAG-IC3 TCR F51T

other: t1/2 [1]: 20 min
Kd [2]: 172 nM
other: t1/2 [2]: 1.5 min
Substance: MAG-IC3 TCR F51W

Kd [1]: 59 nM
Substance: MAG-IC3 TCR N97Q

Kd [4]: 99.3 nM
Substance: MAG-IC3 TCR mutant N97D (β chain)

Kd [3]: 601 nM
Substance: MAG-IC3 TCR mutant N97Q (β chain)
